doi:10.1101/2022.01.06.475303

Target: SARS-CoV-2 receptor binding domain (RBD), Wuhan-1 (SARS-CoV-2 Wuhan-Hu-1) (UniProt P0DTC2)

Question: Which neutralization IC50 against pseudotyped SARS-CoV-2 (Hela-hACE2 cells) does the source give for CC6.33 IgG (antibody) here?
Answer: Its neutralization IC50 against pseudotyped SARS-CoV-2 (Hela-hACE2 cells) is 0.228 µg/mL.
